# Results: the DeepSol protein solubility set
# Assay: soluble on expression in E. coli; label from the status in PepcDB or PDB records
row,Sequence,soluble on expression in E. coli
1,MKEPLDLSKYSVRTDLAVEAHQMLQERQEEQQQGIQGVIVKEREEEGIIITKVTIDEVASESMGKKPGNYLTLEVQGIRQQDTELQQKVERIFAKEFSYFLEEVGVTKEASCLIVGLGNWNVTPDALGPIVVENVLVTRHLFQLQPESVEEGFRPVSAIRPGVMGITGIETSDVIYGIIEKTKPDFVIAIDALAARSIERVNSTIQISDTGIHPGSGVGNKRKELSKETLGIPVIAIGVPTVVDAVSITSDTIDFILKHFGREMKEGNKPSRSLLPAGFTFGEKKKLTEEDMPDEKSRNMFLGAVGTLEDEEKRKLIYEVLSPLGHNLMVTPKEVDAFIEDMANVIASGLNAALHHQIDQDNTGAYTH,not soluble
2,MKERMQKTSAQAHDFPQRARTESEWYEGVQTFMWMTEDNIVEVPFDKEHLLEIILSPSNLNKAYKAVVRNNGSGGIDKMSCEQLLSWLKANKDELIISLQSGTYRPNPVRRVEIPKDNGKKRLLGIPTVVDRLVQQAINQVLTLIYERQFSKTSYGFRPQRGCHDALRKAQKIVSEGYIYVVDLDLERFFDTVSHSKLIEILSRTIKDGRVISLIHKYLRSGVINRGMFEMSTEGTPQGGPLSPLLSNIMLNELDKELERRGHPFVRYADDAMIFCKSKRAAKRVRESITLFIEGKLFLKVNHEKTVVSYVKGVKFLGYSFYVKKGDCILLVHSKSKNKMKSKLKELTSRSNGWGYEKRKQKLKDYIRGWIAYFCLAQMKRLCIETDEWLRRRIRMCIWKSWKNAKTRVANLKKCGVSEWQAYQWGNTRLGYWRVSNSPIVTFVMSNDKLRKAGYMEFMDCYLKWCPKLEHHHHHH,soluble
3,MKESAASVAVRPQLREVFERFPADAHRTIEDEIHEMMKCYAFDDAIFLAELHYETDKSNNSESLLLYADCLYRANKKEECYGLLSSVKLSGARLFYLLARVSYDLNKIDDCRGALFEHDDGVIRKDILEEPRVASHANLLHAQMLCDESYMDLALESCQKSLDENILLWSAIITYLRFGGHDLAHTFEKHHRKSNGLYLDSPASSLKSETPSPNVPGPSSSSAASTAEPSRLESSVRRSTRGTIASANRETRNTTSNITPRQSTPGSTPSRINPTAPRKSSRISEMTTRRTESSVTGSRSSLFTEPERPHTRATHSSRNRANAALNSDTENSNASNTRTRSGIASVTRGSSSSQRTNPVRTSIRIADAAAAANKTAKTLSQRRRNEKQPLVSRNSNLARSLSGSTNSVASTASERPSEDEVSQINPPLPSVASSLNNDEPMDIVDGVYDPEYKKLFDVYQHIALIEESISTYNWRSADALFAKLDRDIILNTSMVRLQLGRACFEQSEYRECRNILDDLHKRRKWKVDGTELLSTSMWHLQDTHALSALSQILTTESRERPQSWCAAGNCFSLQRQHTQAIECMERAIQLDKRFAYAYTLLGHELIVQDELDKAAGSFRSALLLSPRDYRAWYGLGLVHLKKEQNLTALTNIQKAVNINPTNRAMLCTLSQIEQQRGQIDTALVLIDRALTLNPLDVACRFNRSRLLFEANRNEECLVELDKLKASSPDEAFIFHLLARVHRRMGNTHLALLNYSWAAELDPRGEQNITDSNVINREEYEDDEYGSPV,not soluble
4,MKFCSQCGGEVILRIPEGDTLPRYICPKCHTIHYQNPKVIVGCIPEWENKVLLCKRAIAPYRGKWTLPAGFMENNETLVQGAARETLEEANARVEIRELYAVYSLPHISQVYMLFRAKLLDLDFFPGIESLEVRLFGEQEIPWNDIAFRVIHDPLKRYMEERHHGQPAFHLGIINKPQAGSNSNE,soluble
5,MKFDVIIVGAGPGGMFAAYKLAGKLNTAIFEMGRDISKRKCPSDLSESYCTKCNPCNITSGVGGAGGLSDGKLNYVHPEYPSSFSVGGDFDFLDPNYLIEKMNEVDEIFLKHGAPDELYGDDLEKIEDFLKRANAAGIEFVPLRQRHVGSDELPKVVKSIEDKLKKEGVKIYTRKTVVDIDPERKVVRTEKGEEFGYDYLIIAVGRSGASWLEKWARDYNLEVAENSKAIDVGVRVEVPASIMDDITSAIYDPKLRVITKRHDDYMRTFCTCPRGWVIREDYGDFCLVNGHSKAKEKSSNTNFALLGHYEFTEPFDEPNEWGRDLARITTKLGGGNPIVQRLKDLRLGRRSTESRIKNNRLVQPTLKTAIPGDISLAYPGRAIDDILDALERLDKVIPGVADDSTLLYAPEVKFYSLKLKVDEWMKTNIPYIYAIGDGAGVSRGIVGAAVTGLIAAEGILRERGMELEHHHHHH,soluble
6,MKFEAIAVEKIPLIHEGDNLPSIICEKIGLQDRDIMIIASTIVAKAEGEIFRLEDITPGEEALEIAARTGKDPRFIQAVLSKSREVFVETPFMLVTTLAGHTCVNAGIDESNIENGFLLYPPENPDASALKIGKELEKLSGKKLSIIITDTNGRAFKIGQTGVAIGIYNIKPVKRWIGEKDLFGKVLEITEQAIADELAGAANLLMGEGAGGIPVVIIRGLDYYCEGDTSIKESYRPENMDVIKQGLRCLRNKK,not soluble
7,MKFILRLGLALLTGFVSVSTASAQAYGTADTNAPELRVPKSVQPAFDYWMRDTWATLGPDGYYYITGTTSTPDRHFPGQRHCWDWNDGLYLWRSKDLKIWEAMGRIWSMEKDGTWQKDPKVYKEGEKYAKKSINNDPMDNRFHAVWAPEMHYIKSAKNWFIVACMNQSAGGRGSFILRSTTGKPEGPYENIEGNEDKAIFPNIDGSLFEDTDGTVYFVGHNHYIARMKPDMSGLAEEIKTLKESKYSPEPYVEGAFIFKYDGKYHLVQAIWAHRTVKGDTYVEKEGLTNKKTRYSYDCIIATADNVYGPYGKRYNAITGGGHNNLFQDKDGNWWATMFFNPRGAQAAEYKVTCRPGLIPMLYENGKFKPNHNYQAK,not soluble
8,MKFKKYILTGTLALLLSSTGIATIEGNKADASSLDKYLTESQFHDKRIAEELRTLLNKSNVYALAAGSLNPYYKRTIMMNEYRAKAALKKNDFVSMADAKVALEKIYKEIDEIINR,not soluble
9,MKFLSFIFLVSLCAVTSQINAQAPELPLDKIKLPPGFSISVWANVPDARTMTLGDKGTVFVGSKSAGNVYAITENAGKRQIRIIASKLKMPNGVAFHDGALYVSSVNRILRFDNIENTLDQPLPPRIITADYPKETYHGWRFIAFGPDGWLYVPVGSSCNVCETDLEHYALISRIRPDGSNYEVFAKGVRNTEGFDWHPVTKALWFTDISREWMGDNLPPDELNHASNQGLDFGFPYCHGKEVSDPKLGAKRDCNKFIPPAVELDPHVAPMGMRFYTGTMFPAEYHNGIFIAEHGSWNRSTKIGYRLEWVQLEVNEVARKEIFAEGWLQENEAWGRPVDVLVMPDGALLVSDDMAGVVYRISYDQP,not soluble
10,MKFPGKRKSKHYFPVNARDPLLQQIQPENESSVSWVVGIDQTLVDIEAKVDEAFIVRYGLSAGHSLVIEDDVAEALYQELVRNNLITHQFAGGTIGNTMHNYSVLADDRSVLLGVMCSNIEIGGYAYRYLCNTSSRTDLNYLQGVDGAIGRCFTLIGDSGERTFAISPGHMNKLRPESIPEAVIAGASALVLTSYLVRCKPGEPMPDATMKAIEYAKKHDVPVVLTLGTKYVIADNPAWWQEFLQEHVSILAMNEEEGEALTGFADPLSAANKALDWVDLVLCTAGPAGLYMAGFTEEEAKRKTQHPLLPGAIPEFNQFEFSRAMRHQDCVNPLRIYSHIAPYMGGPEKIMNTNGAGDGALAALLHDITANNYHRNNVPNSSKHKCKWLTYSSLAQVCKYANRVSYQVLNQHSPRLTRGLPEREDSLEEAYWDR,not soluble
11,MKFQCSSCGLRMDSLHFKQEGLMNPKLTSICDICRTRNLNPEEYSNNAVSTFAQSLLYTFVGADKKQDQLNFIVKNKKARKKYEAFLQDYDGNEIARQQIKRSDFNLAVIKSEDGQNDYVPNQDITFEQNLKKMGLEINFQLNEVDFIDRERIRAKYKYRCQYCGRRGHSVDHKDPVSLSHNNSLDNLTLACAECNRIKSDMPYKLFIQLNDQISDINKKLVKYENALGTLREEFEHRRRYLAAQVHLKGIINDPELNEIRKQNKSLQDAIDSLQSDYDDLRQIRKTYFDTGWKLARIKENNDIILEHHHHHH,not soluble
12,MKFSTIFGATTVMTAVSAAAVSSVMTTKTITATNGNNVYTKVVTDTADPIISYSTTRTVVVSNSDATYTKVVTEGPDTTSEKSTTKTLTLTNGSGSSTNLYTKTVTQAVESSTSSSSSSSSSSSSASSSGAAPAAFQGASVGALALGLISYLL,soluble
13,MKFVAPEQAPEQAEVIKNTPFWPDVDLSEFRSVMRTDGTVTQPRLKQVVLTAISEVNAELYDFRNRQQMLGWRTLAEVPAEMLDGKSERIRHYHNAVFCWARAVLNERYQDYDATASGVKRGEELAEASGDLWRDARWAISRVQDVPHCTVELI,not soluble
14,MKFYEEKIDSKRVFEGKMISVRVDRVRLPDGRESTREVVDHPGAVVIVPVLGGKILFVEQYRYPIEQVLLELPAGKLDPGESPEECAKRELEEETGYRAKKLSYLGKIFTTPGFTTEVIHIFAAEDLEKTSQNTDPDEFIEVKEVPIEEALSLLKNAEIEDSKTICALTRFFFAKGVIR,soluble
15,MKGGRNRWVTAQESTLALASKCEQFDPDGITLYVFSGRFKRYENVTSAKVNQIFQENDPSGTTDLAAVLKHATDDYFQRKGAGKTKPNGETILVVTDGEPDDRKAVMRVIIEASRRMDKDEELAISFIQVGSDAQATRFLKVLDDELQGAGAKFDICDTVTMEDMEDLSLSEVLLNAITDLEHHHHHH,not soluble
16,MKGHCHCGAVRWQSDGKVAWSCYCHCADCRRNCAAPVTAFFGLPHESVTWSGDAPRIYRSTDRVERLFCGTCGTQMAYRNADDRVNIHLYTATLEDPSALPPRFHVFHTARLPWLDLQDDLPRFDRTAG,not soluble
17,MKGIILAGGTGSRLYPITKVTNKHLLPVGRYPMIYHAVYKLKQCDITDIMIITGKEHMGDVVSFLGSGQEFGVSFTYRVQDKAGGIAQALGLCEDFVGNDRMVVILGDNIFSDDIRPYVEEFTNQKEGAKVLLQSVDDPERFGVANIQNRKIIEIEEKPKEPKSSYAVTGIYLYDSKVFSYIKELKPSARGELEITDINNWYLKRGVLTYNEMSGWWTDAGTHVSLQRANALARDINFGKQFNGE,not soluble
18,MKHHHHHHPMSGLVPRGSAMGEPLASASKFSSIVSNDIDMNFRSFKFWVHNDNLMEVKTRILRHLPVLVYANVPSENDDLVNRFESDISNNDEIVGSSSSTSSVEHGLGARSFDPLINTLYFDNEHFELYNDKLLKLNSAPTLRLRWTGQLSDKPDIFLEKKTLIEDEATGKSEFDLTKLQLKQKFINGFIFEGDKKFKEQTLKKLKESGTAGRDLERLEEDFSEIQNFIIKNELQPVFRTVYTRTAFQIPGDDKIRVTIDSNIVFIKEDSFDRERPIRDPNTWHRTDIDANVANPLKFLRGGEYAKFPYSVMEIKVKSSLDSSMSASSMISNVKLPKKHGQWLNDLTNSHLVKEIPKFSIFVQGVASLYGDDEKLDILPFWLPDLETDIRQ,soluble
19,MKHLLLASLLGSAMAMSSLVMAADTDLKTLEAAAKAEGAVNSLGMPDDWANWGGIWKDLETKYGLKHMDTDMSSAQEIAKFDAEKDNASGDIGDVGAAFGPIAVAKGVTQPYKPTTWEQIPDWAKDKDGHWALAYTGTIAFIVNKNLLHGSEIPKSWADLKTGKYKVSIGDVSTAAQATNGVLAAAIAMKGDESNIEPGLALFTDLAKQKRLSLANPTIQTIEKGEIEVGVVWDFNGLNYKAKMAKPDDYVVLIPSDGSVVSGYTTIINKYAKHPNAAKLAREYTFSDAGQINLAKGNARPIRVEHIKLPDDVKAQLLPHEQYLNAKPIKDADAWEKTSKALPQKWNEQVIIEMN,not soluble
20,MKHLNFILAGLFFLCGLCCRAQVLPLEENVVLNTKEGQIKGKLLLPGGVKTCPVVLIIAGSGPTDMDGNSAIGNLRNNSLKFLAEGLAANGIASLRFDKRGIGTSASAGKEEAKLRFEDYVNDVTGWIDYLAKEKRFTTITVAGHSEGALIGMLACQNRPKVKGYISVAGAGRPAYEIIEAQVAAQQNPEAVRKEVASINGSLKNGKEVSDVPAYLQSLYRASVQPYLISWFKYNPRTVIASVKVPVLIVQGKNDIQVSVEDAELLKKGCPAAELLLIDKMNHVLKDCESKAVQQQMLTYGNPSLPVNSTLIASVSTFVKKLK,not soluble
